# Measurements reported in patent US20190233494A1 (Sanofi, published 2019).
# Starred links: 1 amine or outer side, 2 acyl side, 3 side chain; linkers in the order of their positions; H or OH if unused. Non-standard residues stand in square brackets, D forms with d. Groups on a side chain read outwards from the residue. *: point of attachment. TTDS = 4-[3-[2-[2-(3-aminopropoxy)ethoxy]ethoxy]propylamino]-4-oxo-butanoyl; γGlu = O=C(O)[C@H](CCC(=O)[*:2])N[*:1]; Stearoyl = CCCCCCCCCCCCCCCCCC(=O)*; Palmitoyl = CCCCCCCCCCCCCCCC(=O)*; αMeK = C[C@](N)(CCCCN)C(=O)O; hLys = NCCCCC[C@H](N)C(=O)O; AEEA = NCCOCCOCC(=O)O; Aib = CC(C)(N)C(=O)O
# T1: RXFP1 receptor (endogenous, on OVCAR5 cells) (UniProt Q9HBX9 1-757, limits assumed)
# T1 sequence (looked up): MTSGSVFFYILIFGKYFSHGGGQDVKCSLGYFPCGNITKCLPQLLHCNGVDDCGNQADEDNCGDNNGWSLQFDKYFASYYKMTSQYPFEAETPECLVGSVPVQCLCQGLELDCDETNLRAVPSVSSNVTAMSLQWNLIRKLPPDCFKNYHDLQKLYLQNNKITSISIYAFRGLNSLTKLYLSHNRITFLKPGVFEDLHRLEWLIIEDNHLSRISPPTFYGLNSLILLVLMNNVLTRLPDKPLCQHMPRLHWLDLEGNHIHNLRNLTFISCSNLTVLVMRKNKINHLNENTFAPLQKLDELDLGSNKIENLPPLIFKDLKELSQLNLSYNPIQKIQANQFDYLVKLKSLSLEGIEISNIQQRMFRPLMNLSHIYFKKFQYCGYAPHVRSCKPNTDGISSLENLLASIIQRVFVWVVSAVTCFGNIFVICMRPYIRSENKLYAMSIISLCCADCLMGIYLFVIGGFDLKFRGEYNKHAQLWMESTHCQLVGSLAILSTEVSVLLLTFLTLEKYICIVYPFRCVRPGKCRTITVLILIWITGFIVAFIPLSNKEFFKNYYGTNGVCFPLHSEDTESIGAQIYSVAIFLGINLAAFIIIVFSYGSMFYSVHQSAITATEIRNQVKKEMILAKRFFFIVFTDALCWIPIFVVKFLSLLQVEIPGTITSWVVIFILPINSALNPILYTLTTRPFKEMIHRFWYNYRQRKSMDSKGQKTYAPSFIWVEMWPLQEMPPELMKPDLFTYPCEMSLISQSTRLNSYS
# B1: peptide of SEQ ID NO: 32 (peptide)
# peptide: LEGREKVRAXIXXEGXSTFSXRAX
# modifications: Ac-L-E-G-R-E-K-V-R-A-K(Ac)-I-Aib-Aib-E-G-K(PEG2DGA-PEG2DGA-PEG2DGA-gE-gE-gE-Stea)-S-T-F-S-Mly-R-A-K(Ac)-NH2
# B2: peptide of SEQ ID NO: 21 (peptide)
# peptide: Ac-LEGREKVRAK(Ac)I[Aib][Aib]EGK([AEEA-AEEA-AEEA-AEEA-γGlu-γGlu-γGlu-Stearoyl])STWS[Aib]RKK(Ac)-NH2
# SMILES: CCCCCCCCCCCCCCCCCC(=O)N[C@@H](CCC(=O)N[C@@H](CCC(=O)N[C@@H](CCC(=O)NCCOCCOCC(=O)NCCOCCOCC(=O)NCCOCCOCC(=O)NCCOCCOCC(=O)NCCCC[C@H](NC(=O)CNC(=O)[C@H](CCC(=O)O)NC(=O)C(C)(C)NC(=O)C(C)(C)NC(=O)[C@@H](NC(=O)[C@H](CCCCNC(C)=O)NC(=O)[C@H](C)NC(=O)[C@H](CCCNC(=N)N)NC(=O)[C@@H](NC(=O)[C@H](CCCCN)NC(=O)[C@H](CCC(=O)O)NC(=O)[C@H](CCCNC(=N)N)NC(=O)CNC(=O)[C@H](CCC(=O)O)NC(=O)[C@H](CC(C)C)NC(C)=O)C(C)C)[C@@H](C)CC)C(=O)N[C@@H](CO)C(=O)N[C@H](C(=O)N[C@@H](Cc1c[nH]c2ccccc12)C(=O)N[C@@H](CO)C(=O)NC(C)(C)C(=O)N[C@@H](CCCNC(=N)N)C(=O)N[C@@H](CCCCN)C(=O)N[C@@H](CCCCNC(C)=O)C(N)=O)[C@@H](C)O)C(=O)O)C(=O)O)C(=O)O
# B3: peptide of SEQ ID NO: 26 (peptide)
# peptide: Ac-LEGREKVRAK(Ac)I[Aib][Aib]EGK([AEEA-AEEA-AEEA-AEEA-γGlu-γGlu-γGlu-Stearoyl])STFS[αMeK]RAK(Ac)-NH2
# SMILES: CCCCCCCCCCCCCCCCCC(=O)N[C@@H](CCC(=O)N[C@@H](CCC(=O)N[C@@H](CCC(=O)NCCOCCOCC(=O)NCCOCCOCC(=O)NCCOCCOCC(=O)NCCOCCOCC(=O)NCCCC[C@H](NC(=O)CNC(=O)[C@H](CCC(=O)O)NC(=O)C(C)(C)NC(=O)C(C)(C)NC(=O)[C@@H](NC(=O)[C@H](CCCCNC(C)=O)NC(=O)[C@H](C)NC(=O)[C@H](CCCNC(=N)N)NC(=O)[C@@H](NC(=O)[C@H](CCCCN)NC(=O)[C@H](CCC(=O)O)NC(=O)[C@H](CCCNC(=N)N)NC(=O)CNC(=O)[C@H](CCC(=O)O)NC(=O)[C@H](CC(C)C)NC(C)=O)C(C)C)[C@@H](C)CC)C(=O)N[C@@H](CO)C(=O)N[C@H](C(=O)N[C@@H](Cc1ccccc1)C(=O)N[C@@H](CO)C(=O)N[C@@](C)(CCCCN)C(=O)N[C@@H](CCCNC(=N)N)C(=O)N[C@@H](C)C(=O)N[C@@H](CCCCNC(C)=O)C(N)=O)[C@@H](C)O)C(=O)O)C(=O)O)C(=O)O
# B4: peptide of SEQ ID NO: 42 (peptide)
# peptide: Ac-LEGREKVRAK(Ac)I[Aib][Aib]EGK([AEEA-AEEA-AEEA-AEEA-γGlu-γGlu-γGlu-Palmitoyl])STWS[αMeK]RAK(Ac)-NH2
# SMILES: CCCCCCCCCCCCCCCC(=O)N[C@@H](CCC(=O)N[C@@H](CCC(=O)N[C@@H](CCC(=O)NCCOCCOCC(=O)NCCOCCOCC(=O)NCCOCCOCC(=O)NCCOCCOCC(=O)NCCCC[C@H](NC(=O)CNC(=O)[C@H](CCC(=O)O)NC(=O)C(C)(C)NC(=O)C(C)(C)NC(=O)[C@@H](NC(=O)[C@H](CCCCNC(C)=O)NC(=O)[C@H](C)NC(=O)[C@H](CCCNC(=N)N)NC(=O)[C@@H](NC(=O)[C@H](CCCCN)NC(=O)[C@H](CCC(=O)O)NC(=O)[C@H](CCCNC(=N)N)NC(=O)CNC(=O)[C@H](CCC(=O)O)NC(=O)[C@H](CC(C)C)NC(C)=O)C(C)C)[C@@H](C)CC)C(=O)N[C@@H](CO)C(=O)N[C@H](C(=O)N[C@@H](Cc1c[nH]c2ccccc12)C(=O)N[C@@H](CO)C(=O)N[C@@](C)(CCCCN)C(=O)N[C@@H](CCCNC(=N)N)C(=O)N[C@@H](C)C(=O)N[C@@H](CCCCNC(C)=O)C(N)=O)[C@@H](C)O)C(=O)O)C(=O)O)C(=O)O
# B5: peptide of SEQ ID NO: 22 (peptide)
# peptide: LEGREKVRAXIXXEGXSTFSXRAX
# modifications: Ac-L-E-G-R-E-K-V-R-A-K(Ac)-I-Aib-Aib-E-G-K(PEG2DGA-PEG2DGA-PEG2DGA-gE-gE-gE-Palm)-S-T-F-S-Mly-R-A-K(Ac)-NH2
# Target: T1, RXFP1 receptor (endogenous, on OVCAR5 …)
# Assay: cell-based or functional assay
Binder,"EC50 (nM), OVCAR 5 cells (cAMP) [nM]","EMax, OVCAR 5 cells (cAMP) [%]"
Ac-LEGREKVR[Aib]K(Ac)I[Aib][Aib]EGK([TTDS-TTDS-TTDS-γGlu-γGlu-γGlu-Palmitoyl])STFS[αMeK]RAK(Ac)-NH2 [peptide of SEQ ID NO: 29],1.6,88
Ac-LEGREKVRAK(Ac)I[Aib][Aib]EGK([TTDS-TTDS-TTDS-γGlu-γGlu-γGlu-Palmitoyl])STFS[Dlys]RAK(Ac)-NH2 [peptide of SEQ ID NO: 36],3.6,93
Ac-LEGRELVRAK(Ac)I[Aib][Aib]EGK([TTDS-TTDS-TTDS-γGlu-γGlu-γGlu-Palmitoyl])STFS[αMeK]RAK(Ac)-NH2 [peptide of SEQ ID NO: 23],11.1,92
Ac-LEGRERVRAK(Ac)I[Aib][Aib]EGK([TTDS-TTDS-TTDS-γGlu-γGlu-γGlu-Palmitoyl])STWS[Aib]RRK(Ac)-NH2 [peptide of SEQ ID NO: 31],0.19,
Ac-LEGREKVRAK(Ac)I[Aib][Aib]EGK([TTDS-TTDS-TTDS-γGlu-γGlu-γGlu-Stearoyl])STWS[αMeK]RAK(Ac)-NH2 [peptide of SEQ ID NO: 30],0.21,89
Ac-LEGREFVRAK(Ac)I[Aib][Aib]EGK([TTDS-TTDS-TTDS-γGlu-γGlu-γGlu-Palmitoyl])STWS[Aib]RRK(Ac)-NH2 [peptide of SEQ ID NO: 39],8.7,93
B1,0.1,97
Ac-LEGREKVRAK(Ac)I[Aib][Aib]EGK([TTDS-TTDS-γGlu-γGlu-γGlu-Stearoyl])STFS[αMeK]RAK(Ac)-NH2 [peptide of SEQ ID NO: 34],0.14,90
Ac-LEGRELVRAK(Ac)I[Aib][Aib]EGK([TTDS-TTDS-TTDS-γGlu-γGlu-γGlu-Palmitoyl])STWS[Aib]RRK(Ac)-NH2 [peptide of SEQ ID NO: 37],5.6,98
Ac-LEGREQVRAK(Ac)I[Aib][Aib]EGK([TTDS-TTDS-TTDS-γGlu-γGlu-γGlu-Palmitoyl])STFS[αMeK]RAK(Ac)-NH2 [peptide of SEQ ID NO: 25],28.7,100
B2,0.65,93
Ac-LEGREFVRAK(Ac)I[Aib][Aib]EGK([TTDS-TTDS-TTDS-γGlu-γGlu-γGlu-Palmitoyl])STFS[αMeK]RAK(Ac)-NH2 [peptide of SEQ ID NO: 24],36.4,100
Ac-LEGRE[hLys]VRAK(Ac)I[Aib][Aib]EGK([TTDS-TTDS-TTDS-γGlu-γGlu-γGlu-Palmitoyl])STFS[αMeK]RAK(Ac)-NH2 [peptide of SEQ ID NO: 28],0.62,88
B3,0.43,96
Ac-LEGREKVRAK(Ac)I[Aib][Aib]EGK([TTDS-TTDS-TTDS-γGlu-γGlu-γGlu-Palmitoyl])STFS[αMeK]RAK(Ac)-NH2 [peptide of SEQ ID NO: 3],0.34,97
Ac-LEGREKVRAK(Ac)I[Aib][Aib]EGK([TTDS-TTDS-TTDS-γGlu-γGlu-γGlu-Palmitoyl])STW[Aib]KRAK(Ac)-NH2 [peptide of SEQ ID NO: 35],2.33,91
Ac-LEGREKVRAK(Ac)I[Aib][Aib]EGK([TTDS-TTDS-γGlu-γGlu-γGlu-Palmitoyl])STWS[Aib]RKK(Ac)-NH2 [peptide of SEQ ID NO: 4],1.5,89
Ac-LEGRERVRAK(Ac)I[Aib][Aib]EGK([TTDS-TTDS-TTDS-γGlu-γGlu-γGlu-Palmitoyl])STFS[αMeK]RAK(Ac)-NH2 [peptide of SEQ ID NO: 27],1.8,98
B4,1.5,84
B5,1,92
